The experiment addresses T1, SidJ^[change] (SidJ 59–851) (L. pneumophila, UniProt Q5ZTK6 59-851).
T1 sequence: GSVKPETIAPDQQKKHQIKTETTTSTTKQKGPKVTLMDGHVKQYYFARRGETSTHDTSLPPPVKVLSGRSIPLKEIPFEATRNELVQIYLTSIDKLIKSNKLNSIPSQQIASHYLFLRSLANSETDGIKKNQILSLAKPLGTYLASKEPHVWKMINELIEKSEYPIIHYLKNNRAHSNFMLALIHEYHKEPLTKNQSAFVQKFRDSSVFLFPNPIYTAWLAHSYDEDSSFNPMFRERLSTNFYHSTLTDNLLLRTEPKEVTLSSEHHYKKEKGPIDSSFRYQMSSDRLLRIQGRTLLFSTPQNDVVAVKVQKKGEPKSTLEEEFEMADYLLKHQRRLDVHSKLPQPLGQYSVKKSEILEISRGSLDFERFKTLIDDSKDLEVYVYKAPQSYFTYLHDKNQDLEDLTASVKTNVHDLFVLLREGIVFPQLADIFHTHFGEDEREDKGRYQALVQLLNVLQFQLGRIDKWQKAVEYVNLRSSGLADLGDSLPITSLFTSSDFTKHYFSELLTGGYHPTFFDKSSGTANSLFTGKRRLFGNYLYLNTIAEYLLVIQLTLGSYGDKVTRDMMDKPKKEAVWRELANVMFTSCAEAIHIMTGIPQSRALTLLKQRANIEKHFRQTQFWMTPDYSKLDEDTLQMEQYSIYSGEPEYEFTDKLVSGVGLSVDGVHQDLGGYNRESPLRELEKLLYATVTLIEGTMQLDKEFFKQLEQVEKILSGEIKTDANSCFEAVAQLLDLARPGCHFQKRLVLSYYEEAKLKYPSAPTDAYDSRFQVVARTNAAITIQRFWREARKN
Put plainly: crystal structure.

B1: yeast CaM (yCaM) (natural protein)
chain: not shown
In the case of B1, the binding result was “binds”.

Values taken from paper PMC6767918 (Science (New York, N.Y.), 2019).
